Article PMC3227520 (Biochemistry, 2011)
Like-named read-outs stand apart in the source and are kept apart here. Primed or numbered codes have the meaning given here. *: point of attachment. FITC = O=C1OC2(c3ccc(O)cc3Oc3cc(O)ccc32)c2ccc(NC(=S)*)cc21; FITC′ = fluorescein isothiocyanate label; Ahx = NCCCCCC(=O)O

B1: MIIA^1851–1960 (nonmuscle myosin-IIA heavy chain fragment) (domain or fragment, UniProt P35579 1851-1960, looked up)
chain: VDDERRNAEQYKDQADKASTRLKQLKRQLEEAEEEAQRANASRRKLQRELEDATETADAMNREVSSLKNKLRRGDLPFVVPRRMARKGAGDGSDEEVDGKADGAEAKPAE
B2: FITC-MIIA^1904–1927 (nonmuscle myosin-IIA 24mer peptide) (peptide)
peptide: {FITC-Ahx}-TETADAMNREVSSLKNKLRRGDLP-NH2
SMILES: CSCC[C@H](NC(=O)[C@H](C)NC(=O)[C@H](CC(=O)O)NC(=O)[C@H](C)NC(=O)[C@@H](NC(=O)[C@H](CCC(=O)O)NC(=O)[C@@H](NC(=O)CCCCCNC(=S)Nc1ccc2c(c1)C(=O)OC21c2ccc(O)cc2Oc2cc(O)ccc21)[C@@H](C)O)[C@@H](C)O)C(=O)N[C@@H](CC(N)=O)C(=O)N[C@@H](CCCNC(=N)N)C(=O)N[C@@H](CCC(=O)O)C(=O)N[C@H](C(=O)N[C@@H](CO)C(=O)N[C@@H](CO)C(=O)N[C@@H](CC(C)C)C(=O)N[C@@H](CCCCN)C(=O)N[C@@H](CC(N)=O)C(=O)N[C@@H](CCCCN)C(=O)N[C@@H](CC(C)C)C(=O)N[C@@H](CCCNC(=N)N)C(=O)N[C@@H](CCCNC(=N)N)C(=O)NCC(=O)N[C@@H](CC(=O)O)C(=O)N[C@@H](CC(C)C)C(=O)N1CCC[C@H]1C(N)=O)C(C)C
B3: wild-type S100A4 (native noncovalent S100A4 dimer) (natural protein)
chain: not shown

Key:
cross-linking = target: the molecule itself; assay: cross-linking
[1] = target: B3; assay: fluorescence polarisation
[2] = target: B2; assay: fluorescence polarisation
[3] = target: B3; assay: fluorescence polarisation; remark: listed apart in the source

B1
stoichiometry N (cross-linking): 2

B2
Kd [1]: 260 ± 30 nM

B3
stoichiometry N [2]: 1 S100A4 dimer per peptide

{FITC′-Ahx}-DAMNREVSSLKNKLRR-NH2 [FITC-MIIA^1908–1923 (nonmuscle myosin-IIA peptide, minimal S100A4 binding site)]
Kd [3]: 1800 ± 200 nM
